Assay results taken from patent US20250339569A1 (3B PHARMACEUTICALS, published 2025).
Starred links: 1 amine or outer side, 2 acyl side, 3 side chain; linkers in the order of their positions; H or OH if unused. Positions of bridges follow the written chain, without caps; N, C: chain ends. Non-standard residues stand in square brackets, D forms with d. Groups on a side chain read outwards from the residue. No end group written: not given here. *: point of attachment. DOTA = O=C(O)CN1CCN(CC(=O)O)CCN(CC(=O)*)CCN(CC(=O)O)CC1; mXylylene = c1cc(C[*:1])cc(C[*:2])c1; NMeY = CN[C@@H](Cc1ccc(O)cc1)C(=O)O; APAc = not defined here; Apr = not defined here; AEEA = NCCOCCOCC(=O)O

Biological target: human carbonic anhydrase 9 (CAIX) (human, UniProt Q16790 38-459)
Experiment: FACS competition on HT-29 cells against tracer 3BP-2776; pIC50 category A = pIC50 >8.0
Experimental: CAIX-expressing human HT-29 colorectal cancer cells (DSMZ, RRID: CVCL_0320) were cultured in McCoys's 5A modified medium (Biochrom, #F1015) including 10% fetal calf serum (FCS), 2 mM L-glutamine, 100 U/ml penicillin and 100 μg/mL streptomycin. Cells were detached with Accutase (Biolegend, #423201) and washed in FACS buffer (PBS including 1% FCS). Cells were diluted in FACS buffer to a final concentration of 500.000 cells per ml. 200 μL of the cell suspension were transferred to a u-shaped non-binding 96-well plate (Greiner) and cells were washed in ice-cold FACS buffer.
When biotinylated compounds were used an additional incubation step with 1 μg/mL APC-Streptavidin (Miltenyi; #130-106-791) in 50 μL FACS buffer for 30 minutes on ice was performed.
Cells were washed twice with ice-cold FACS buffer and analyzed in an Attune NxT flow cytometer (Thermo Fisher). Median fluorescence intensities (MFI) of the APC/Cy5-channel were calculated by Attune NxT software.

Row | Binder | pIC50 [pic50]
1 | {DOTA-APAc}-VYCE[dP]DWLTWRC-NH2 (linker 3-12 via mXylylene; reading uncertain, also called DOTA-APAc-Val-Tyr-[Cys(3MeBn)-Glu-pro-Asp-Trp-Leu-Thr-Trp-Arg-Cys]-NH2) [3BP-3599] | > 8
2 | {DOTA-APAc}-VYCE[dP]SWLTWSC-NH2 (linker 3-12 via mXylylene; reading uncertain, also called DOTA-APAc-Val-Tyr-[Cys(3MeBn)-Glu-pro-Ser-Trp-Leu-Thr-Trp-Ser-Cys]-NH2) [3BP-3595] | > 8
3 | {DOTA-APAc}-VYCE[dP]DFLTWSC-NH2 (linker 3-12 via mXylylene; reading uncertain, also called DOTA-APAc-Val-Tyr-[Cys(3MeBn)-Glu-pro-Asp-Phe-Leu-Thr-Trp-Ser-Cys]-NH2) [3BP-3596] | > 8
4 | Ac-VYCE[dP]DWLTWE([Apr-AEEA-DOTA])C-NH2 (linker 3-12 via mXylylene; reading uncertain, also called Ac-Val-Tyr-[Cys(3MeBn)-Glu-pro-Asp-Trp-Leu-Thr-Trp-Glu(NH-Apr-O2Oc-DOTA′)-Cys]-NH2) [3BP-3479] | > 8
5 | Ac-V[NMeY]CE[dP]DWLTWSC-NH2 (linker 3-12 via mXylylene; SMILES CC(=O)N[C@H](C(=O)N(C)[C@@H](Cc1ccc(O)cc1)C(=O)N[C@H]1CSCc2cccc(c2)CSC[C@@H](C(N)=O)NC(=O)[C@H](CO)NC(=O)[C@H](Cc2c[nH]c3ccccc23)NC(=O)[C@H]([C@@H](C)O)NC(=O)[C@H](CC(C)C)NC(=O)[C@H](Cc2c[nH]c3ccccc23)NC(=O)[C@H](CC(=O)O)NC(=O)[C@H]2CCCN2C(=O)[C@H](CCC(=O)O)NC1=O)C(C)C, also called Ac-Val-Nmy-[Cys(3MeBn)-Glu-pro-Asp-Trp-Leu-Thr-Trp-Ser-Cys]-NH2) [3BP-3589] | > 8
6 | Ac-VYCE[dP]DWLTWE([Apr-DOTA])C-NH2 (linker 3-12 via mXylylene; reading uncertain, also called Ac-Val-Tyr-[Cys(3MeBn)-Glu-pro-Asp-Trp-Leu-Thr-Trp-Glu(NH-Apr-DOTA′)-Cys]-NH2) [3BP-3478] | > 8
7 | Ac-TYCE[dP]DWLTWSC-NH2 (linker 3-12 via mXylylene; SMILES CC(=O)N[C@H](C(=O)N[C@@H](Cc1ccc(O)cc1)C(=O)N[C@H]1CSCc2cccc(c2)CSC[C@@H](C(N)=O)NC(=O)[C@H](CO)NC(=O)[C@H](Cc2c[nH]c3ccccc23)NC(=O)[C@H]([C@@H](C)O)NC(=O)[C@H](CC(C)C)NC(=O)[C@H](Cc2c[nH]c3ccccc23)NC(=O)[C@H](CC(=O)O)NC(=O)[C@H]2CCCN2C(=O)[C@H](CCC(=O)O)NC1=O)[C@@H](C)O, also called Ac-Thr-Tyr-[Cys(3MeBn)-Glu-pro-Asp-Trp-Leu-Thr-Trp-Ser-Cys]-NH2) [3BP-3567] | > 8
8 | {DOTA-APAc}-VYCE[dP]DWLHWSC-NH2 (linker 3-12 via mXylylene; reading uncertain, also called DOTA-APAc-Val-Tyr-[Cys(3MeBn)-Glu-pro-Asp-Trp-Leu-His-Trp-Ser-Cys]-NH2) [3BP-3597] | > 8
9 | Ac-VYCE[dP]DWLTWSC-NH2 (linker 3-12 via mXylylene; SMILES CC(=O)N[C@H](C(=O)N[C@@H](Cc1ccc(O)cc1)C(=O)N[C@H]1CSCc2cccc(c2)CSC[C@@H](C(N)=O)NC(=O)[C@H](CO)NC(=O)[C@H](Cc2c[nH]c3ccccc23)NC(=O)[C@H]([C@@H](C)O)NC(=O)[C@H](CC(C)C)NC(=O)[C@H](Cc2c[nH]c3ccccc23)NC(=O)[C@H](CC(=O)O)NC(=O)[C@H]2CCCN2C(=O)[C@H](CCC(=O)O)NC1=O)C(C)C, also called Ac-Val-Tyr-[Cys(3MeBn)-Glu-pro-Asp-Trp-Leu-Thr-Trp-Ser-Cys]-NH2) [3BP-3565] | > 8
10 | Ac-VFCE[dP]DWLTWEC-NH2 (linker 3-12 via mXylylene; not fully specified (residue 11); also: indium complexed by DOTA, also called Ac-Val-Phe-[Cys(3MeBn)-Glu-pro-Asp-Trp-Leu-Thr-Trp-Glu(NH-Apr-O2Oc-InDOTA′)-Cys]-NH2) [3BP-3844] | > 8
11 | Ac-SRCE[dP]DWLTWE([Apr-AEEA-DOTA])C-NH2 (linker 3-12 via 3MeBn; reading uncertain, also called Ac-Ser-Arg-[Cys(3MeBn)-Glu-pro-Asp-Trp-Leu-Thr-Trp-Glu(NH-Apr-O2Oc-DOTA′)-Cys]-NH2) [3BP-3735] | > 8
12 | Ac-VYCE[dP]DWLTWEC-NH2 (linker 3-12 via mXylylene; not fully specified (residue 11); also: indium complexed by DOTA, also called Ac-Val-Tyr-[Cys(3MeBn)-Glu-pro-Asp-Trp-Leu-Thr-Trp-Glu(NH-Apr-O2Oc-InDOTA′)-Cys]-NH2) [3BP-3843] | > 8
13 | Ac-SYCE[dP]DWLTWE([Apr-DOTA])C-NH2 (linker 3-12 via mXylylene; reading uncertain, also called Ac-Ser-Tyr-[Cys(3MeBn)-Glu-pro-Asp-Trp-Leu-Thr-Trp-Glu(NH-Apr-DOTA′)-Cys]-NH2) [3BP-3873] | > 8
14 | Ac-VYCE[dP]DWLTWAC (linker 3-12 via mXylylene; not fully specified (C-terminus), also called Ac-Val-Tyr-[Cys(3MeBn)-Glu-pro-Asp-Trp-Leu-Thr-Trp-Ala-Cys]-Ape-NH-DOTA′) [3BP-3434] | > 8
15 | Ac-IYCE[dP]DWLTWSC-NH2 (linker 3-12 via mXylylene; SMILES CC[C@H](C)[C@H](NC(C)=O)C(=O)N[C@@H](Cc1ccc(O)cc1)C(=O)N[C@H]1CSCc2cccc(c2)CSC[C@@H](C(N)=O)NC(=O)[C@H](CO)NC(=O)[C@H](Cc2c[nH]c3ccccc23)NC(=O)[C@H]([C@@H](C)O)NC(=O)[C@H](CC(C)C)NC(=O)[C@H](Cc2c[nH]c3ccccc23)NC(=O)[C@H](CC(=O)O)NC(=O)[C@H]2CCCN2C(=O)[C@H](CCC(=O)O)NC1=O, also called Ac-Ile-Tyr-[Cys(3MeBn)-Glu-pro-Asp-Trp-Leu-Thr-Trp-Ser-Cys]-NH2) [3BP-3568] | > 8
16 | Ac-SYCE[dP]DWLTWE([Apr-AEEA-DOTA])C-NH2 (linker 3-12 via 3MeBn; reading uncertain, also called Ac-Ser-Tyr-[Cys(3MeBn)-Glu-pro-Asp-Trp-Leu-Thr-Trp-Glu(NH-Apr-O2Oc-DOTA′)-Cys]-NH2) [3BP-3732] | > 8
17 | Ac-VRCE[dP]DWLTWE([Apr-AEEA-DOTA])C-NH2 (linker 3-12 via 3MeBn; reading uncertain, also called Ac-Val-Arg-[Cys(3MeBn)-Glu-pro-Asp-Trp-Leu-Thr-Trp-Glu(NH-Apr-O2Oc-DOTA′)-Cys]-NH2) [3BP-3734] | > 8
18 | VYCE[dP]DWLTWSC-NH2 (linker 3-12 via 3MeBn; not fully specified (N-terminus); also: europium complexed by DOTA, also called EuDOTA-APAc-Val-Tyr-[Cys(3MeBn)-Glu-pro-Asp-Trp-Leu-Thr-Trp-Ser-Cys]-NH2) [3BP-3784] | > 8

Results, then the binder that gave them:

Row | pIC50 [pic50] | Binder
19 | > 8 | Ac-VYCE[dP]DWLTWAC (linker 3-12 via mXylylene; not fully specified (C-terminus), The printed formula ends at '-Ape-NH'; also called Ac-Val-Tyr-[Cys(3MeBn)-Glu-pro-Asp-Trp-Leu-Thr-Trp-Ala-Cys]-Mamb-Ape-NH) [3BP-3433]
20 | > 8 | Ac-VRCE[dP]DWLTWEC-NH2 (linker 3-12 via mXylylene; not fully specified (residue 11); also: indium complexed by DOTA, also called Ac-Val-Arg-[Cys(3MeBn)-Glu-pro-Asp-Trp-Leu-Thr-Trp-Glu(NH-Apr-O2Oc-InDOTA′)-Cys]-NH2) [3BP-3845]
21 | > 8 | Ac-VFCE[dP]DWLTWSC-NH2 (linker 3-12 via mXylylene; SMILES CC(=O)N[C@H](C(=O)N[C@@H](Cc1ccccc1)C(=O)N[C@H]1CSCc2cccc(c2)CSC[C@@H](C(N)=O)NC(=O)[C@H](CO)NC(=O)[C@H](Cc2c[nH]c3ccccc23)NC(=O)[C@H]([C@@H](C)O)NC(=O)[C@H](CC(C)C)NC(=O)[C@H](Cc2c[nH]c3ccccc23)NC(=O)[C@H](CC(=O)O)NC(=O)[C@H]2CCCN2C(=O)[C@H](CCC(=O)O)NC1=O)C(C)C, also called Ac-Val-Phe-[Cys(3MeBn)-Glu-pro-Asp-Trp-Leu-Thr-Trp-Ser-Cys]-NH2) [3BP-3570]
22 | > 8 | {DOTA-APAc}-VYCE[dP]DWLTWSC-NH2 (linker 3-12 via mXylylene; reading uncertain, also called DOTA-APAc-Val-Tyr-[Cys(3MeBn)-Glu-pro-Asp-Trp-Leu-Thr-Trp-Ser-Cys]-NH2) [3BP-3583]
23 | > 8 | Ac-VSCE[dP]DWLTWSC-NH2 (linker 3-12 via mXylylene; SMILES CC(=O)N[C@H](C(=O)N[C@@H](CO)C(=O)N[C@H]1CSCc2cccc(c2)CSC[C@@H](C(N)=O)NC(=O)[C@H](CO)NC(=O)[C@H](Cc2c[nH]c3ccccc23)NC(=O)[C@H]([C@@H](C)O)NC(=O)[C@H](CC(C)C)NC(=O)[C@H](Cc2c[nH]c3ccccc23)NC(=O)[C@H](CC(=O)O)NC(=O)[C@H]2CCCN2C(=O)[C@H](CCC(=O)O)NC1=O)C(C)C, also called Ac-Val-Ser-[Cys(3MeBn)-Glu-pro-Asp-Trp-Leu-Thr-Trp-Ser-Cys]-NH2) [3BP-3571]
24 | > 8 | Ac-VRCE[dP]DWLTWSC-NH2 (linker 3-12 via mXylylene; SMILES CC(=O)N[C@H](C(=O)N[C@@H](CCCNC(=N)N)C(=O)N[C@H]1CSCc2cccc(c2)CSC[C@@H](C(N)=O)NC(=O)[C@H](CO)NC(=O)[C@H](Cc2c[nH]c3ccccc23)NC(=O)[C@H]([C@@H](C)O)NC(=O)[C@H](CC(C)C)NC(=O)[C@H](Cc2c[nH]c3ccccc23)NC(=O)[C@H](CC(=O)O)NC(=O)[C@H]2CCCN2C(=O)[C@H](CCC(=O)O)NC1=O)C(C)C, also called Ac-Val-Arg-[Cys(3MeBn)-Glu-pro-Asp-Trp-Leu-Thr-Trp-Ser-Cys]-NH2) [3BP-3588]
25 | > 8 | Ac-SYCE[dP]DWLTWSC-NH2 (linker 3-12 via mXylylene; SMILES CC(=O)N[C@@H](CO)C(=O)N[C@@H](Cc1ccc(O)cc1)C(=O)N[C@H]1CSCc2cccc(c2)CSC[C@@H](C(N)=O)NC(=O)[C@H](CO)NC(=O)[C@H](Cc2c[nH]c3ccccc23)NC(=O)[C@H]([C@@H](C)O)NC(=O)[C@H](CC(C)C)NC(=O)[C@H](Cc2c[nH]c3ccccc23)NC(=O)[C@H](CC(=O)O)NC(=O)[C@H]2CCCN2C(=O)[C@H](CCC(=O)O)NC1=O, also called Ac-Ser-Tyr-[Cys(3MeBn)-Glu-pro-Asp-Trp-Leu-Thr-Trp-Ser-Cys]-NH2) [3BP-3566]
26 | > 8 | Ac-VFCE[dP]DWLTWE([Apr-AEEA-DOTA])C-NH2 (linker 3-12 via 3MeBn; reading uncertain, also called Ac-Val-Phe-[Cys(3MeBn)-Glu-pro-Asp-Trp-Leu-Thr-Trp-Glu(NH-Apr-O2Oc-DOTA′)-Cys]-NH2) [3BP-3733]
